From patent publication US20060057701A1 (RINAT NEUROSCIENCE, published 2006) come the findings set out here.

Ends that are not written are not given here.

The target of one assay is T1, human FcγRIIb/c (human, UniProt P31994 46-217, limits assumed).
T1 construct: Bought
T1 sequence (looked up): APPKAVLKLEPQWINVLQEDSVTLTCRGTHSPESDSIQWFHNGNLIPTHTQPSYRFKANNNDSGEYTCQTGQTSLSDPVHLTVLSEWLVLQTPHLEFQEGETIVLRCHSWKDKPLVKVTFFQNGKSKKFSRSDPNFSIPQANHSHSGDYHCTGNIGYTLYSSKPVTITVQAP
As to the kind of experiment: SPR, receptor on CM5 chip, antibody flowed. The method, then:
(§1) Binding affinity of the antibody Fc regions to Fcγ receptors or complement were measured using BIAcore as described above. Briefly, purified human or murine Fcγ receptors (from R&D Systems) and human C1q (from Quidel) were immobilized on BIAcore CM5 chip by amine chemistry. Serial dilutions of monoclonal antibodies (ranging from 2 nM to the maximum concentration as indicated in Tables 16 and 17) were injected. HBS-EP (0.01M HEPES, pH 7.4, 0.15 M NaCl, 3 mM EDTA, 0.005% Surfactant P20) as running and sample buffer. Binding data were analyzed using 1:1 langmuir interaction model for high affinity interactions, or steady state affinity model for low affinity interactions.
For orientation: SPR reads the build-up and loss of mass on a sensor chip optically.

In a further assay the target is T2, murine FcγRI (murine, UniProt P26151 25-297, limits assumed).
T2 construct: Bought; also called mFcγRI
T2 sequence (looked up): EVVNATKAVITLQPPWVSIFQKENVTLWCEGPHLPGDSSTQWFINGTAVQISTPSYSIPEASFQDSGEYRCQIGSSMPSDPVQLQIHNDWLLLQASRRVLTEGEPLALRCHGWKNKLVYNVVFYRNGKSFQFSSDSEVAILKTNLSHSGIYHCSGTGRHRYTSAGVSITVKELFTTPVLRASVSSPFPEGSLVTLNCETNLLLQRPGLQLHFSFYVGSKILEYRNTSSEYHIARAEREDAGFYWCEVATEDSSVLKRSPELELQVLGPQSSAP
Description: SPR, receptor on CM5 chip, antibody flowed. The method, then:
as §1

The target in the next assay is T3, human FcγRI (human, UniProt P12314 16-288, limits assumed).
T3 construct: Bought
Description: SPR, receptor on CM5 chip, antibody flowed. On the procedure: as §1

For another assay, the target named is T4, murine FcγRIIb (murine, UniProt P08101 40-217, limits assumed).
T4 construct: Bought; also called mFcγRIIb
T4 sequence (looked up): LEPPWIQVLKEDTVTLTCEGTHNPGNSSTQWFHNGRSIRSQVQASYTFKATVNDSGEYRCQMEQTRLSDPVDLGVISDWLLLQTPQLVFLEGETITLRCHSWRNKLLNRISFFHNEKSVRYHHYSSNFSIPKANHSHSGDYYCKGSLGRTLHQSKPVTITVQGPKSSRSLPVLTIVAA
Description: SPR, receptor on CM5 chip, antibody flowed. On the procedure:
as §1

A further assay concerns the target T5, murine FcγRIII (murine, UniProt P08508 31-215, limits assumed).
T5 construct: Bought; also called mFcγRIII
T5 sequence (looked up): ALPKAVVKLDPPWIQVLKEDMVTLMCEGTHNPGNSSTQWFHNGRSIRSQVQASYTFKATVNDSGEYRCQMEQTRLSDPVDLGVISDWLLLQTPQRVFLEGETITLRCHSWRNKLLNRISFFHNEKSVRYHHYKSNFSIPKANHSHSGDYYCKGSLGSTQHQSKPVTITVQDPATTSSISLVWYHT
As to the kind of experiment: SPR, receptor on CM5 chip, antibody flowed. On the procedure: as §1

The next assay addresses T6, human C1q (human, UniProt P02745 23-245; P02746 28-253; P02747 29-245).
T6 construct: also called hC1q; human complement
As to the kind of experiment: SPR, C1q on CM5 chip, antibody flowed. The method, then: as §1

The target in the next assay is T7, Aβ1-43 peptide (human).
T7 construct: also called 1-43 (WT)
Description: SPR competition: soluble peptide against immobilized Aβ1-40, Fab at 50 nM. The method, then:
(§2) To determine the epitope on Aβ polypeptide that is recognized by antibody 9TL, Surface Plasmon Resonance (SPR, Biacore 3000) binding analysis was used. Aβ₁₋₄₀ polypeptide coupled to biotin (Global Peptide Services, CO) was immobilized on a streptavidin-coated chip (SA chip). The binding of Aβ antibodies Fab fragments (at 50 nM) to the immobilized Aβ₁₋₄₀ in the absence or presence of different soluble fragments of the Aβ peptide (at 10 μM, from American Peptide Company Inc., CA). Amino acid sequences of Aβ₁₋₄₀, Aβ₁₋₄₂, and Aβ₁₋₄₃ are shown in below in Table 4. The Aβ peptides which displaced binding of antibody 9TL Fab fragment to Aβ₁₋₄₀ were Aβ₂₈₋₄₀, Aβ₁₋₄₀, Aβ₃₃₋₄₀, and Aβ₁₇₋₄₀, respectively (FIG. 2). Thus, antibody 9TL binds to a C-terminal peptide (33-40) of Aβ₁₋₄₀.

The target in the next assay is T8, Aβ28-42 peptide (human).
T8 peptide: KGAIIGLMVGGVVIA
The assay is described as above. The method, then: as §2

Assay [1] concerns the target T9, biotinylated Aβ 24-38 peptide with C-terminal glycine (human, also: biotinylated, position not given here).
T9 peptide: VGSNKGAIIGLMVGGG
Description: ELISA: biotinylated peptide on streptavidin plate, goat anti-human kappa HRP, absorbance at 450 nm. A general note: An ELISA detects its analyte on a solid surface through an enzyme-linked reagent.

Assay [2] has as its target T10, biotinylated Aβ 23-37 peptide with C-terminal glycine (human, also: biotinylated, position not given here).
T10 peptide: DVGSNKGAIIGLMVGG
Described as above.

The target in assay [3] is T11, biotinylated Aβ 20-34 peptide with C-terminal glycine (human, also: biotinylated, position not given here).
T11 peptide: FAEDVGSNKGAIIGLG
Described as above.

Assay [4] has as its target T12, biotinylated Aβ 21-35 peptide with C-terminal glycine (human, also: biotinylated, position not given here).
T12 peptide: AEDVGSNKGAIIGLMG
The description is as above.

Assay [5] deals with T13, biotinylated Aβ 22-36 peptide with C-terminal glycine (human, also: biotinylated, position not given here).
T13 peptide: EDVGSNKGAIIGLMVG
Described as above.

The target in assay [6] is T14, biotinylated Aβ 25-39 peptide with C-terminal glycine (human, also: biotinylated, position not given here).
T14 peptide: GSNKGAIIGLMVGGVG
The description is as above.

T3 sequence (P12314 16-288 limits assumed): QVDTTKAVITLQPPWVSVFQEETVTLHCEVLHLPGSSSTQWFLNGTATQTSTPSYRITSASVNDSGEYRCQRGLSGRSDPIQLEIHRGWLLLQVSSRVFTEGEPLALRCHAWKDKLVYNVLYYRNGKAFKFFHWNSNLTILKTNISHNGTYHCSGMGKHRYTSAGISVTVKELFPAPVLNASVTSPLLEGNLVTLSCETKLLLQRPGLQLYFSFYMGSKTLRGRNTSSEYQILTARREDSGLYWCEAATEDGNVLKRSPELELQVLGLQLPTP
T7 sequence (peptide, as listed by the source): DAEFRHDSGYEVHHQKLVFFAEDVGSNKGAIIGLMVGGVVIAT
T6 sequence (P02745 23-245 limits assumed, chain 1 of 3): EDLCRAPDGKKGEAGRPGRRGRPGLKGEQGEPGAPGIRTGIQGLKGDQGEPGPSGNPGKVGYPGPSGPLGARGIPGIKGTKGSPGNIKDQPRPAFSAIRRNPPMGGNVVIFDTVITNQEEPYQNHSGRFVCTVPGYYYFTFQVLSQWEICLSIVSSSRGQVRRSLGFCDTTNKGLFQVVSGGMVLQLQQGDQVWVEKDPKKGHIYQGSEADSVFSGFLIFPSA
T6 sequence (P02746 28-253 limits assumed, chain 2 of 3): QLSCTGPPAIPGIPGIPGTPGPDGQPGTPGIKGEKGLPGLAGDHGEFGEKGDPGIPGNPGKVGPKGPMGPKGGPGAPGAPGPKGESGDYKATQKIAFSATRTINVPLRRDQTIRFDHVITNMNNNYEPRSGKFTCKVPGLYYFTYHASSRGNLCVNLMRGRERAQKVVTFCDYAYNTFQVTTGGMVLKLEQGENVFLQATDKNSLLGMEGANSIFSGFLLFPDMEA
T6 sequence (P02747 29-245 limits assumed, chain 3 of 3): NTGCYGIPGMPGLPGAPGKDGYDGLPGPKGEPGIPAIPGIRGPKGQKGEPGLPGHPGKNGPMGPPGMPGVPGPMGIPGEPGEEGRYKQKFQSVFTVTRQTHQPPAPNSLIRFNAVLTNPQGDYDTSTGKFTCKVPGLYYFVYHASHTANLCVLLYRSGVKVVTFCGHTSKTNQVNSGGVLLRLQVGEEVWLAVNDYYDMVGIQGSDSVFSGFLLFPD

B1: antibody 9TL (antibody, human IgG2, kappa)
heavy: QVQLVQSGAEVKKPGASVKVSCKASGYYTEAYYIHWVRQAPGQGLEWMGRIDPATGNTKYAPRLQDRVTMTRDTSTSTVYMELSSLRSEDTAVYYCASLYSLPVYWGQGTTVTVSSASTKGPSVFPLAPCSRSTSESTAALGCLVKDYFPEPVTVSWNSGALTSGVHTFPAVLQSSGLYSLSSVVTVPSSNFGTQTYTCNVDHKPSNTKVDKTVERKCCVECPPCPAPPVAGPSVFLFPPKPKDTLMISRTPEVTCVVVDVSHEDPEVQFNWYVDGVEVHNAKTKPREEQFNSTFRVVSVLTVVHQDWLNGKEYKCKVSNKGLPSSIEKTISKTKGQPREPQVYTLPPSREEMTKNQVSLTCLVKGFYPSDIAVEWESNGQPENNYKTTPPMLDSDGSFFLYSKLTVDKSRWQQGNVFSCSVMHEALHNHYTQKSLSLSPGK
light: DVVMTQSPLSLPVTLGQPASISCKSSQSLLYSDAKTYLNWFQQRPGQSPRRLIYQISRLDPGVPDRFSGSGSGTDFTLKISRVEAEDVGVYYCLQGTHYPVLFGQGTRLEIKRTVAAPSVFIFPPSDEQLKSGTASVVCLLNNFYPREAKVQWKVDNALQSGNSQESVTEQDSKDSTYSLSSTLTLSKADYEKHKVYACEVTHQGLSSPVTKSFNRGEC
notes: Full antibody; human IgG2a constant region with A330P331 to S330S331, human kappa; transient expression in HEK 293 cells; also called 9TL mAb; 9TL(hIgG2Δa); copies: 2 + 2
On to B1, for which, in the assay with human FcγRIIb/c, the affinity, expressed as Kd, was 61 µM. Further, the binding result with murine FcγRI is “no binding (tested: 30,000 nM)”; with human FcγRI it was “no binding (tested: 30 µM)”; with murine FcγRIIb it was “no binding (tested: 30,000 nM)”; in the assay with murine FcγRIII, “no binding (tested: 30,000 nM)”; with human C1q, “no binding (tested: 30,000 nM)”.

B2: antibody 9TL Fab fragment (Fab, V domains shown)
VH: QVQLVQSGAEVKKPGASVKVSCKASGYYTEAYYIHWVRQAPGQGLEWMGRIDPATGNTKYAPRLQDRVTMTRDTSTSTVYMELSSLRSEDTAVYYCASLYSLPVYWGQGTTVTVSS
VL: DVVMTQSPLSLPVTLGQPASISCKSSQSLLYSDAKTYLNWFQQRPGQSPRRLIYQISRLDPGVPDRFSGSGSGTDFTLKISRVEAEDVGVYYCLQGTHYPVLFGQGTRLEIKR
notes: Fab expressed in E. coli
For the molecule B2, the binding result in the assay with Aβ1-43 peptide and with Aβ28-42 peptide was “no binding (tested: 10 µM peptide)” in each case.

B3: antibody 6G (antibody, human IgG2, kappa, V domains shown)
VH: QVQLVQSGAEVKKPGASVKVSCKASGYTFTTYAIHWVRQAPGQGLEWMGFTSPYSGVSNYNQKFKGRVTMTRDTSTSTVYMELSSLRSEDTAVYYCARFDNYDRGYVRDYWGQGTLVTVSS
VL: DIVMTQSPDSLAVSLGERATINCRASESVDNDRISFLNWYQQKPGQPPKLLIYAATKQGTGVPDRFSGSGSGTDFTLTISSLQAEDVAVYYCQQSKEFPWSFGGGTKVEIKR
notes: Full antibody with modified human IgG2a (A330P331 to S330S331) and human kappa
As for B3, the “absorbance at 450 nm” value in [1] is 2.1; in assay [2], 2.3; in assay [3], greater than 3; in assay [4], greater than 3; in assay [5], greater than 3; in assay [6], 1.5.
